Measured values: patent publication US20210261648A1 (published 2021)
Changes are numbered by the printed parent chain. Names may count otherwise.

Key:
[1] = target: T1, FcγRIIb extracellular domain with C-terminal His tag (human, UniProt P31994 43-217); assay: SPR (Biacore)
T1 construct: extracellular domain; For crystals it was expressed with kifunensine and trimmed with Endo F1; also called FcgRIIb; FcγRIIb extracellular region
T1 sequence (looked up): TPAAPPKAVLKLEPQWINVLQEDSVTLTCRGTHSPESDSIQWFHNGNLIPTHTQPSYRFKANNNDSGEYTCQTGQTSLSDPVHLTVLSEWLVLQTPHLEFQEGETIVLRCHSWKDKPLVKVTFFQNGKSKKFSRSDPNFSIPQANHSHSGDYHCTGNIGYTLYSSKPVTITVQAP

FcγRIIa type R [2] = target: T2, FcγRIIa type R (human, UniProt P12318 34-217); assay: SPR (Biacore), captured antibody, soluble FcγR
T2 chain: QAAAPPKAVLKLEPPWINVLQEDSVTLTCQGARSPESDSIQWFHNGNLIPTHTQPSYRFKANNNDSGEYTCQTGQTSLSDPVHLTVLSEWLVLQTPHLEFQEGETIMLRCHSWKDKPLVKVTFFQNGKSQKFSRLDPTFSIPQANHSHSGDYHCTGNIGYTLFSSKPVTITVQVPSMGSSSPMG

FcγRIIa type H = target: T3, FcγRIIa type H (human, UniProt P12318 34-217); assay: SPR (Biacore), captured antibody, soluble FcγR
T3 construct: extracellular domain; also called FcγRIIaH; FcgRIIaH
T3 sequence (looked up): T2 chain with R134H

FcγRIa = target: T4, FcγRIa (human, UniProt P12314 16-292); assay: SPR (Biacore), captured antibody, soluble FcγR
T4 construct: Whole entry named; also called FcgRIa; CD64A

FcγRIIb [3] = target: T5, FcγRIIb (human, UniProt P31994 43-217); assay: SPR (Biacore), captured antibody, soluble FcγR
T5 construct: extracellular domain; also called FcgRIIb; CD32B
T5 sequence (looked up): T1 sequence (looked up)

FcγRIIa type R [4] = target: T2, FcγRIIa type R; assay: SPR (Biacore); parent = IL6R-B3/IL6R-L
FcγRIIb [5] = target: T5, FcγRIIb; assay: SPR (Biacore); parent = IL6R-B3/IL6R-L

T4 sequence (P12314 16-292): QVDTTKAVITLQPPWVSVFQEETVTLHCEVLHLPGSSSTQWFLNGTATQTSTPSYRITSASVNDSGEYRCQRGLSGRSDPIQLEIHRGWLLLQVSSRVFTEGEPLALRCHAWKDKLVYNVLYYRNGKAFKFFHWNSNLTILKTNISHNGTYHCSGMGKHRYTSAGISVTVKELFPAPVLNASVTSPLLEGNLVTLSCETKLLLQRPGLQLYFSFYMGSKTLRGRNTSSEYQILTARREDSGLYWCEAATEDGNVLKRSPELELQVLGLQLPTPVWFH

B1: IL6R-BP449/IL6R-L (antibody, human IgG1, kappa, name in EU numbering)
heavy: QVQLQESGPGLVKPSETLSLTCAVSGHSISHDHAWSWVRQPPGEGLEWIGFISYSGITNYNPSLQGRVTISRDNSKNTLYLQMNSLRAEDTAVYYCARSLARTTAMDYWGEGTLVTVSSASTKGPSVFPLAPSSKSTSGGTAALGCLVKDYFPEPVTVSWNSGALTSGVHTFPAVLQSSGLYSLSSVVTVPSSSLGTQTYICNVNHKPSNTKVDKKVEPKSCDKTHTCPPCPAPDLLGDDSVFLFPPKPKDTLMISRTPEVTCVVVDVAEEDGEVKFNWYVDGVEVHNAKTKPREEQYNSTYRVVSVLTVLHQDWLNGKEYKCKVSNKALPRPIEKTISKAKGQPREPQVYTLPPSRDELTKNQVSLTCLVKGFYPSDIAVEWESNGQPENNYKTTPEVLDSDGSFFLYSKLTVDKSRWQQGNVFSCSVMHEALHNHYTQESLSLSP
light: not shown
binding result [1]: binds

B2: IL6R-BP450/IL6R-L (antibody, human IgG1, kappa, name in EU numbering)
heavy: B1 heavy with E398F
light: not shown
binding result [1]: binds

B3: IL6R-BP453/IL6R-L (antibody)
heavy: B1 heavy with E398I
light: not shown
notes: Printed 'P3961'
binding result [1]: binds

B4: IL6R-BP454/IL6R-L (antibody, human IgG1, kappa, name in EU numbering)
heavy: B1 heavy with E398K
light: not shown
binding result [1]: binds

B5: IL6R-BP455/IL6R-L (antibody, human IgG1, kappa, name in EU numbering)
heavy: B1 heavy with E398L
light: not shown
binding result [1]: binds

B6: IL6R-BP456/IL6R-L (antibody, human IgG1, kappa, name in EU numbering)
heavy: B1 heavy with E398M
light: not shown
binding result [1]: binds

B7: IL6R-BP458/IL6R-L (antibody, human IgG1, kappa, name in EU numbering)
heavy: B1 heavy with E398Q
light: not shown
binding result [1]: binds

B8: IL6R-BP459/IL6R-L (antibody, human IgG1, kappa, name in EU numbering)
heavy: B1 heavy with E398R
light: not shown
binding result [1]: binds

B9: IL6R-BP464/IL6R-L (antibody, human IgG1, kappa, name in EU numbering)
heavy: B1 heavy with E398Y
light: not shown
binding result [1]: binds

B10: IL6R-BP465/IL6R-L (antibody, human IgG1, kappa)
heavy: B1 heavy with A269S, E270D, Y298D, E335K, E398P
light: not shown
binding result [1]: binds

B11: IL6R-BP466/IL6R-L (antibody, human IgG1, kappa)
heavy: B1 heavy with A269S, E270D, Y298D, E335R, E398P
light: not shown
binding result [1]: binds

B12: IL6R-BP470/IL6R-L (antibody, human IgG1, kappa)
heavy: B1 heavy with A269S, E270D, Y298D, E335T, E398P
light: not shown
binding result [1]: binds

B13: IL6R-BP492/IL6R-L (antibody, human IgG1, kappa)
heavy: B1 heavy with D235E, D239G, V266I, R332A, E398P
light: not shown
binding relative to IL6R-B3/IL6R-L [1]: ≥ 100 times

B14: IL6R-BP493/IL6R-L (antibody, human IgG1, kappa)
heavy: B1 heavy with D235E, D239G, V266I, Y298D, R332A, E398P
light: not shown
binding relative to IL6R-B3/IL6R-L [1]: ≥ 100 times

B15: IL6R-BP500/IL6R-L (antibody, human IgG1, kappa)
heavy: B1 heavy with D235E, V266I, Y298D, R332A, E398P
light: not shown
binding relative to IL6R-B3/IL6R-L [1]: ≥ 100 times

B16: IL6R-BP541/IL6R-L (antibody, human IgG1, kappa)
heavy: B1 heavy with A269S, E270D, K276Q, Y298D, E398P
light: not shown
binding result [1]: binds

B17: IL6R-BP544/IL6R-L (antibody, human IgG1, kappa)
heavy: B1 heavy with A269S, E270D, Y298D, R357Q, E398P
light: not shown
binding result [1]: binds

B18: IL6R-BP545/IL6R-L (antibody, human IgG1, kappa)
heavy: B1 heavy with A269S, E270D, Y298D, D358E, E398P
light: not shown
binding result [1]: binds

B19: IL6R-BP546/IL6R-L (antibody, human IgG1, kappa)
heavy: B1 heavy with A269S, E270D, Y298D, L360M, E398P
light: not shown
binding result [1]: binds

B20: IL6R-BP559/IL6R-L (antibody, human IgG1, kappa)
heavy: B1 heavy with D235E, D239G, V266I, E274D, Y298D, R332A, E398P
light: not shown
binding relative to IL6R-B3/IL6R-L [1]: ≥ 100 times

B21: variant resulting from adding E269D to IL6R-BP267/IL6R-L (antibody, human IgG1, kappa)
heavy: B1 heavy with A269S, E271D, R332A, E398P
light: not shown
binding result [1]: binds

B22: variant resulting from adding S267A to IL6R-BP267/IL6R-L (antibody, human IgG1, kappa)
heavy: B1 heavy with R332A, E398P
light: not shown
binding result [1]: binds

B23: variant resulting from adding S267E to IL6R-BP267/IL6R-L (antibody, human IgG1, kappa)
heavy: B1 heavy with A269E, R332A, E398P
light: not shown
binding result [1]: binds

B24: variant resulting from adding S267G to IL6R-BP267/IL6R-L (antibody, human IgG1, kappa)
heavy: B1 heavy with A269G, R332A, E398P
light: not shown
binding result [1]: binds

B25: variant resulting from adding V264I to IL6R-BP267/IL6R-L (antibody, human IgG1, kappa)
heavy: B1 heavy with V266I, A269S, R332A, E398P
light: not shown
binding result [1]: binds

B26: variant resulting from adding V266F to IL6R-BP267/IL6R-L (antibody, human IgG1, kappa)
heavy: B1 heavy with V268F, A269S, R332A, E398P
light: not shown
binding result [1]: binds

B27: variant resulting from adding V266M to IL6R-BP267/IL6R-L (antibody, human IgG1, kappa)
heavy: B1 heavy with V268M, A269S, R332A, E398P
light: not shown
binding result [1]: binds

B28: IL6R-BP567/IL6R-L (antibody, human IgG1, kappa)
heavy: B1 heavy with D239G, V266I, Y298D, R332A, E398P
light: not shown
binding relative to IL6R-B3/IL6R-L [1]: ≥ 100 times

B29: IL6R-AP002/IL6R-BP256/IL6R-L (antibody, human IgG1, kappa)
heavy 1: B1 heavy with A269S, E270D, D358K, E398P, H437R, E441K
heavy 2: B1 heavy with S241D, A269S, E270D, E398P
light: not shown
notes: Heterodimer: S239D in one chain only
binding result [1]: binds

B30: IL6R-AP002/IL6R-BP257/IL6R-L (antibody, human IgG1, kappa)
heavy 1: B1 heavy with A269S, E270D, D358K, E398P, H437R, E441K
heavy 2: B1 heavy with S241E, A269S, E270D, E398P
light: not shown
notes: Heterodimer: S239E in one chain only
binding result [1]: binds

B31: IL6R-AP009/IL6R-BP259/IL6R-L (antibody, human IgG1, kappa)
heavy 1: B1 heavy with A269S, E270D, Y298D, D358K, E398P, H437R, E441K
heavy 2: B1 heavy with S241D, A269S, E270D, Y298D, E398P
light: not shown
notes: as for B29
binding result [1]: binds

B32: IL6R-AP009/IL6R-BP260/IL6R-L (antibody, human IgG1, kappa)
heavy 1: B1 heavy with A269S, E270D, Y298D, D358K, E398P, H437R, E441K
heavy 2: B1 heavy with S241E, A269S, E270D, Y298D, E398P
light: not shown
notes: as for B30
binding result [1]: binds

B33: IL6R-BP438/IL6R-L (antibody, human IgG1, kappa)
heavy: B1 heavy with I334T, E398P
light: not shown
notes: Alterations in EU numbering, introduced into IL6R-B3
Kd (FcγRIIa type R [2]): 180 nM | Kd (FcγRIIa type H): 1600 nM

B34: IL6R-BP487/IL6R-L (antibody, human IgG1, kappa)
heavy: B1 heavy with V266I, E398M
light: not shown
notes: as for B33
Kd (FcγRIIa type R [2]): 39 nM | Kd (FcγRIIa type H): 840 nM | Kd (FcγRIa): 1.2 nM | Kd (FcγRIIb [3]): 1.2 nM | KD(IIaR) of the parent polypeptide/KD(IIaR) of the altered polypeptide (FcγRIIa type R [4]): 28.3 fold | KD(IIb) of the parent polypeptide/KD(IIb) of the altered polypeptide (FcγRIIb [5]): 2700 fold

B35: IL6R-BP488/IL6R-L (antibody, human IgG1, kappa)
heavy: B1 heavy with V266I, Y298D, E398P
light: not shown
notes: as for B33
Kd (FcγRIIa type R [2]): 74 nM | Kd (FcγRIIa type H): 1600 nM | Kd (FcγRIa): 2.2 nM | Kd (FcγRIIb [3]): 1.9 nM | KD(IIaR) of the parent polypeptide/KD(IIaR) of the altered polypeptide (FcγRIIa type R [4]): 14.8 fold | KD(IIb) of the parent polypeptide/KD(IIb) of the altered polypeptide (FcγRIIb [5]): 1680 fold

B36: IL6R-BP489/IL6R-L (antibody, human IgG1, kappa)
heavy: B1 heavy with V266I, Y298D, E398M
light: not shown
notes: as for B33
Kd (FcγRIIa type R [2]): 43 nM | Kd (FcγRIIa type H): 870 nM | Kd (FcγRIa): 1.3 nM | Kd (FcγRIIb [3]): 1 nM | KD(IIaR) of the parent polypeptide/KD(IIaR) of the altered polypeptide (FcγRIIa type R [4]): 25.7 fold | KD(IIb) of the parent polypeptide/KD(IIb) of the altered polypeptide (FcγRIIb [5]): 3100 fold

B37: IL6R-BP491/IL6R-L (antibody, human IgG1, kappa)
heavy: B1 heavy with D235E, V266I, Y298D, E398P
light: not shown
notes: as for B33
Kd (FcγRIIa type R [2]): 120 nM | Kd (FcγRIIa type H): 2200 nM | Kd (FcγRIa): 5.3 nM | Kd (FcγRIIb [3]): 3 nM | KD(IIaR) of the parent polypeptide/KD(IIaR) of the altered polypeptide (FcγRIIa type R [4]): 9.3 fold | KD(IIb) of the parent polypeptide/KD(IIb) of the altered polypeptide (FcγRIIb [5]): 1020 fold

B38: IL6R-BP496/IL6R-L (antibody, human IgG1, kappa)
heavy: B1 heavy with V266I, Y298D, R332A, E398P
light: not shown
notes: as for B33
Kd (FcγRIIa type R [2]): 470 nM | Kd (FcγRIIa type H): 3700 nM | Kd (FcγRIa): 1.2 nM | Kd (FcγRIIb [3]): 18 nM | KD(IIaR) of the parent polypeptide/KD(IIaR) of the altered polypeptide (FcγRIIa type R [4]): 2.3 fold | KD(IIb) of the parent polypeptide/KD(IIb) of the altered polypeptide (FcγRIIb [5]): 168 fold

B39: IL6R-BP554/IL6R-L (antibody, human IgG1, kappa)
heavy: B1 heavy with D235E, V266I, E274D, E398P
light: not shown
notes: as for B33
Kd (FcγRIIa type R [2]): 150 nM | Kd (FcγRIIa type H): 2300 nM | Kd (FcγRIa): 8 nM

B40: IL6R-BP558/IL6R-L (antibody, human IgG1, kappa)
heavy: B1 heavy with D235E, V266I, A269G, E274D, E398P
light: not shown
notes: as for B33
Kd (FcγRIIa type R [2]): 330 nM | Kd (FcγRIIa type H): 4900 nM | Kd (FcγRIIb [3]): 9 nM
